According to patent publication US20170137467A1 (CHROMOTEK, published 2017):
Square brackets hold non-standard residues; d marks the D form. GABA = NCCCC(=O)O

What was measured:
[1] = molecular target: T1, BC2T W10Y peptide (BC2TW10X library) (human); assay: BC2TW10X library pulldown with immobilized Nb, LC-MS of the supernatant
T1 construct: also called W10 permutant Y
T1 peptide: Ac-PDRKAAVSHYQQ-NH2
Experimental: (§1) To investigate the binding specificity of the BC2T and derived mutants peptide libraries for each amino acid position of the sequence […] (SEQ ID NO:4) were synthesized with acetyl and amide groups located at the N-termini or C-termini respectively (Intavis). […] Incubations were performed in 300 μl PBS/0.01% CHAPS for 1 h on a HulaMixer (Life Technologies). Subsequent to a centrifugation step 10 μl supernatant were analyzed in a LC-MS procedure. Peptides were separated using an UltiMate3000 RSLCnano System (Thermo Scientific), composed of a C18 PepMap100μ-Precolumn (300 μm×5 mm; particle size: 5 μm; pore size: 100 Å—Thermo Scientific) and a C18 analytical column (Acclaim Rapid Separation LC (RSLC) Column: 150 mm×5 mm; particle size: 2.2 μm; pore size: 100 Å—Thermo Scientific). A step gradient was applied starting at 8% and ending after 20 min at 30% eluent B (80% acetonitrile, 20% H₂O, 0.1% formic acid). Peptides were analyzed using a FULL-MS-strategy detected by a Q Exactive Plus mass spectrometer (Thermo Scientific). As maximal injection time 100 ms was chosen while setting the AGC target to 3E6. The resolution was set to 70.000. Half-maximal signal areas were referenced to control precipitation approaches using a GFP-specific nanobody immobilized on agarose beads. All experiments were done in triplicates.

[2] = molecular target: T2, BC2T W10G peptide (BC2TW10X library) (human); assay: as above
T2 construct: also called W10 permutant G
T2 peptide: Ac-PDRKAAVSHGQQ-NH2
Experimental: as §1

[3] = molecular target: T3, BC2T R3W; assay: positional peptide library pulldown on immobilised Nb, LC-MS of supernatant; signal ratio to control GFP-Nb (1 = not captured, near 0 = captured)
T3 construct: positional scanning library member
T3 peptide: Ac-PDWKAAVSHWQQ-NH2
In short: (§2)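 Unbound peptide left in supernatant after 1 h pulldown in PBS/0.01% CHAPS measured by reversed-phase LC-MS (8–30% eluent B gradient, 20 min).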

[4] = molecular target: T4, BC2T A5Y; assay: as above
T4 construct: positional scanning library member
T4 peptide: Ac-PDRKYAVSHWQQ-NH2
In short: as §2

[5] = molecular target: T5, BC2T P1C(Abu) (SMILES …); assay: as above
T5 construct: positional scanning library member
T5 peptide: Ac-[GABA]DRKAAVSHWQQ-NH2
In short: as §2

[6] = molecular target: T6, BC2T R3C(Abu) (SMILES …); assay: as above
T6 construct: positional scanning library member
T6 peptide: Ac-PD[GABA]KAAVSHWQQ-NH2
In short: as §2

[7] = molecular target: T7, BC2T D2Y; assay: as above
T7 construct: positional scanning library member
T7 peptide: Ac-PYRKAAVSHWQQ-NH2
In short: as §2

[8] = molecular target: T8, BC2T P1D; assay: as above
T8 construct: positional scanning library member
T8 peptide: Ac-DDRKAAVSHWQQ-NH2
In short: as §2

[9] = molecular target: T9, BC2T A5C(Abu) (SMILES …); assay: as above
T9 construct: positional scanning library member
T9 peptide: Ac-PDRK[GABA]AVSHWQQ-NH2
In short: as §2

[10] = molecular target: T10, BC2T A6R; assay: as above
T10 construct: positional scanning library member
T10 peptide: Ac-PDRKARVSHWQQ-NH2
In short: as §2

[11] = molecular target: T11, BC2T R3H; assay: as above
T11 construct: positional scanning library member
T11 peptide: Ac-PDHKAAVSHWQQ-NH2
In short: as §2

[12] = molecular target: T12, BC2T K4F; assay: as above
T12 construct: positional scanning library member
T12 peptide: Ac-PDRFAAVSHWQQ-NH2
In short: as §2

[13] = molecular target: T13, BC2T K4E; assay: as above
T13 construct: positional scanning library member
T13 peptide: Ac-PDREAAVSHWQQ-NH2
In short: as §2

[14] = molecular target: T14, BC2T V7Y; assay: as above
T14 construct: positional scanning library member
T14 peptide: Ac-PDRKAAYSHWQQ-NH2
In short: as §2

[15] = molecular target: T15, BC2T R3T; assay: as above
T15 construct: positional scanning library member
T15 peptide: Ac-PDTKAAVSHWQQ-NH2
In short: as §2

[16] = molecular target: T16, BC2T peptide PDRKAAVSHWQQ (human); assay: as above
T16 construct: aa 16-27 of beta-catenin; also called BC2-tag; BC2-peptide
T16 peptide: Ac-PDRKAAVSHWQQ-NH2
In short: as §2

B1: BC2 nanobody (VHH)
VHH: QVQLVESGGGLVQPGGSLTLSCTASGFTLDHYDIGWFRQAPGKEREGVSCINNSDDDTYYADSVKGRFTIFMDNAKDTVYLQMNSLKPEDTAIYYCAEARGCKRGRYEYDFWGQGTQVTVSS
notes: Alpaca VHH, 122 aa; also called BC2-Nb; BC2 nanotrap (BC2-Nb immobilized on agarose/Sepharose beads); not shown: C-terminal 6xHis-tag added by the pHEN6 vector
[1]
  binding result: no binding
[2]
  binding result: no binding

B2: BC2-NbR106E (VHH)
VHH: QVQLVESGGGLVQPGGSLTLSCTASGFTLDHYDIGWFRQAPGKEREGVSCINNSDDDTYYADSVKGRFTIFMDNAKDTVYLQMNSLKPEDTAIYYCAEARGCKRGEYEYDFWGQGTQVTVSS
notes: headlock mutant of BC2-Nb; immobilised on beads in this assay
[3]
  ratio: 1.1
[4]
  ratio: 0.1
[5]
  ratio: 0.2
[6]
  ratio: 0.9
[7]
  ratio: 0.1
[8]
  ratio: 0.8
[9]
  ratio: 0.1
[10]
  ratio: 0.7
[11]
  ratio: 0.5
[12]
  ratio: 0.6
[13]
  ratio: 0.9
[14]
  ratio: 0.2
[15]
  ratio: 0.6

B3: BC2 nanobody (VHH)
VHH: QVQLVESGGGLVQPGGSLTLSCTASGFTLDHYDIGWFRQAPGKEREGVSCINNSDDDTYYADSVKGRFTIFMDNAKDTVYLQMNSLKPEDTAIYYCAEARGCKRGRYEYDFWGQGTQVTVSS
notes: immobilised on beads in this assay; also called BC2-Nb; BC2 nanotrap (immobilised)
[16]
  ratio: 0.1
